From patent US20150374663A1
Values belong to the binder of their own block, whether it stands above or below them. Ends that are not written are not given here.

Legend:
[1] = biological target: type V tartrate-resistant acid phosphatase (TRAP) protein, immobilised on CM5 sensor chip; test: SPR, TRAP amine-coupled to CM5 chip, initial rate analysis of sensorgrams
[2] = biological target: type V tartrate-resistant acid phosphatase (TRAP) protein, immobilised on CM5 sensor chip; test: SPR, TRAP-functionalized surface, binding curve fit (n = 2, Ave. ± StDev)
[3] = biological target: type V tartrate-resistant acid phosphatase (TRAP) protein, immobilised on CM5 sensor chip; test: SPR, TRAP-functionalized surface; lower end of the range told of the peptide-functionalized polymers, tied to the 20% polymer through Table 1
[4] = biological target: type V tartrate-resistant acid phosphatase (TRAP) protein, immobilised on CM5 sensor chip; test: SPR, TRAP-functionalized surface; upper end of the range told of the peptide-functionalized polymers, tied to the 5% polymer through Table 1

Kd [1]: 80 µM
B5: 5% TBP-functionalized PEG polymer of Table 4, M:CTA:I 250:1:0.1, Mn 42.3 kDa (peptide)
peptide: TPLSYLKGLVTVG-OH
modifications: not fully specified (N-terminus); also: RAFT copolymer with PEG methyl ether methacrylate (300 Da), about 5 peptides per chain

Kd [1]: 70 µM
B6: 5% TBP-functionalized PEG polymer of Table 4, M:CTA:I 125:1:0.1, Mn 17.1 kDa (peptide)
peptide: TPLSYLKGLVTVG-OH
modifications: not fully specified (N-terminus); also: RAFT copolymer with PEG methyl ether methacrylate (300 Da), about 3 peptides per chain

Second part, the binder before the results:

B1: 20% TBP-functionalized PEG polymer of Table 4, M:CTA:I 500:1:0.1, Mn 32.7 kDa (peptide)
peptide: TPLSYLKGLVTVG-OH
modifications: not fully specified (N-terminus); also: RAFT copolymer with PEG methyl ether methacrylate (300 Da), about 12 peptides per chain
Kd [1]: 70 µM

B2: 20% peptide monomer TBP-functionalized PEG polymer of Table 1 (Mn 26700 Da, 17.1% peptide incorporated) (peptide)
peptide: TPLSYLKGLVTVG-OH
modifications: not fully specified (N-terminus); also: RAFT random copolymer with PEG monomethyl ether methacrylate
Kd [2]: 7.5 µM
Kd [3]: 7.1 to 21 µM

B3: 10% peptide monomer TBP-functionalized PEG polymer of Table 1 (Mn 69000 Da, 7.5% peptide incorporated) (peptide)
peptide: TPLSYLKGLVTVG-OH
modifications: not fully specified (N-terminus); also: RAFT random copolymer with PEG monomethyl ether methacrylate
Kd [2]: 12.7 µM

B4: 5% TBP-functionalized PEG polymer of Table 4, M:CTA:I 600:1:0.1, Mn 98.2 kDa (peptide)
peptide: TPLSYLKGLVTVG-OH
modifications: not fully specified (N-terminus); also: RAFT copolymer with PEG methyl ether methacrylate (300 Da), about 11 peptides per chain
Kd [1]: 140 µM

B7: 5% peptide monomer TBP-functionalized PEG polymer of Table 1 (Mn 103900 Da, 3.9% peptide incorporated) (peptide)
peptide: TPLSYLKGLVTVG-OH
modifications: not fully specified (N-terminus); also: RAFT random copolymer with PEG monomethyl ether methacrylate
Kd [2]: 21.7 µM
Kd [4]: 7.1 to 21 µM
